T1: human C1s (human, UniProt P09871 16-688)
T1 construct: also called hC1s; serum-derived human C1s (CompTech)
T1 sequence: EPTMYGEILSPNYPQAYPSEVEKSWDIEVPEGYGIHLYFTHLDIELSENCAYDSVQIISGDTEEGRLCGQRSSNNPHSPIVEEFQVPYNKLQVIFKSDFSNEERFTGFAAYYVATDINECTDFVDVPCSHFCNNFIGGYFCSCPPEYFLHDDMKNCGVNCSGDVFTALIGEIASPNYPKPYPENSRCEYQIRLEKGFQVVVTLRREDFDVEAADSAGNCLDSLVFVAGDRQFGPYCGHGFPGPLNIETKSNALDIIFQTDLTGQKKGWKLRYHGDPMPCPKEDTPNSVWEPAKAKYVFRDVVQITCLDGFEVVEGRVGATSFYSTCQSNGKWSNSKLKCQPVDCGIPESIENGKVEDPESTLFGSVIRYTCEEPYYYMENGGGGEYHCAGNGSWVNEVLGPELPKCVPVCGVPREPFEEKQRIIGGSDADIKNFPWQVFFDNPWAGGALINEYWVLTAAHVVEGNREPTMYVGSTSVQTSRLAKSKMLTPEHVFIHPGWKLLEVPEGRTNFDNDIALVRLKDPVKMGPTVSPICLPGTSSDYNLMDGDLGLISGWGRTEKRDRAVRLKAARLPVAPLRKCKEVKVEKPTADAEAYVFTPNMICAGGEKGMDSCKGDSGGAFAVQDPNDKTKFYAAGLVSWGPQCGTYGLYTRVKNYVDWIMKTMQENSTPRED

B1: C1_IPN92H0033-SG4GK/IPN93L0072-SK1 (antibody, human IgG4 S228P, kappa, name in Kabat numbering, V domains shown)
VH: EVMLVESGGGLVKPGGSLRLSCAASGFTFSNYAMSWVRQAPGKGLEWVATISSGGSHTYYLDSVKGRFTISRDNSKDTLYLQMNSLRAEDTALYYCARLFTGHAMDYWGQGTLVTVSS
VL: QIVLTQSPATLSLSPGERATLSCTASSSVKSSYLHWYQQKPGKAPKLWIYSTSNLASGVPSRFSGSGSGTDYTLTISSLQPEDFATYYCHQYYRLHPITFGQGTKLEIKR
notes: also called IPN92H0033/IPN93L0072
B2: C1_IPN92H0159-SG4GK/IPN93L0024-SK1 (antibody, human IgG4 S228P, kappa, name in Kabat numbering, V domains shown)
VH: B1 VH with Y60D
VL: B1 VL with K30S
notes: also called IPN92H0159/IPN93L0024
B3: C1_IPN92H0091-SG4GK/IPN93L0024-SK1 (antibody, human IgG4 S228P, kappa, name in Kabat numbering, V domains shown)
VH: B1 VH with M34K
VL: B1 VL with K30S
notes: also called IPN92H0091/IPN93L0024
B4: C1_IPN92H0061-SG4GK/IPN93L0024-SK1 (antibody, human IgG4 S228P, kappa, name in Kabat numbering, V domains shown)
VH: B1 VH with F29K
VL: B1 VL with K30S
notes: also called IPN92H0061/IPN93L0024
B5: C1_IPN92H0117-SG4GK/IPN93L0024-SK1 (antibody, human IgG4 S228P, kappa, name in Kabat numbering, V domains shown)
VH: B1 VH with S53Q
VL: B1 VL with K30S
notes: also called IPN92H0117/IPN93L0024
B6: C1_IPN92H0157-SG4GK/IPN93L0024-SK1 (antibody, human IgG4 S228P, kappa, name in Kabat numbering, V domains shown)
VH: B1 VH with Y59R
VL: B1 VL with K30S
notes: also called IPN92H0157/IPN93L0024
B7: C1_IPN92H0145-SG4GK/IPN93L0024-SK1 (antibody, human IgG4 S228P, kappa, name in Kabat numbering, V domains shown)
VH: B1 VH with H57R
VL: B1 VL with K30S
notes: also called IPN92H0145/IPN93L0024
B8: C1_IPN92H0079-SG4GK/IPN93L0024-SK1 (antibody, human IgG4 S228P, kappa, name in Kabat numbering, V domains shown)
VH: B1 VH with Y32K
VL: B1 VL with K30S
notes: also called IPN92H0079/IPN93L0024
B9: C1_IPN92H0231-SG4GK/IPN93L0024-SK1 (antibody, human IgG4 S228P, kappa, name in Kabat numbering, V domains shown)
VH: B1 VH with G102K
VL: B1 VL with K30S
notes: also called IPN92H0231/IPN93L0024
B10: C1_IPN92H0033-SG4GK/IPN93L0090-SK1 (antibody, human IgG4 S228P, kappa, name in Kabat numbering, V domains shown)
VH: B1 VH
VL: B1 VL with K30S, Y33K
notes: also called IPN92H0033/IPN93L0090
B11: C1_IPN92H0232-SG4GK/IPN93L0024-SK1 (antibody, human IgG4 S228P, kappa, name in Kabat numbering, V domains shown)
VH: B1 VH with G102R
VL: B1 VL with K30S
notes: also called IPN92H0232/IPN93L0024
B12: C1_IPN92H0166-SG4GK/IPN93L0024-SK1 (antibody, human IgG4 S228P, kappa, name in Kabat numbering, V domains shown)
VH: B1 VH with L61E
VL: B1 VL with K30S
notes: also called IPN92H0166/IPN93L0024
B13: C1_IPN92H0144-SG4GK/IPN93L0024-SK1 (antibody, human IgG4 S228P, kappa, name in Kabat numbering, V domains shown)
VH: B1 VH with H57K
VL: B1 VL with K30S
notes: also called IPN92H0144/IPN93L0024
B14: C1_IPN92H0193-SG4GK/IPN93L0024-SK1 (antibody, human IgG4 S228P, kappa, name in Kabat numbering, V domains shown)
VH: B1 VH with G66D
VL: B1 VL with K30S
notes: also called IPN92H0193/IPN93L0024
B15: C1_IPN92H0162-SG4GK/IPN93L0024-SK1 (antibody, human IgG4 S228P, kappa, name in Kabat numbering, V domains shown)
VH: B1 VH with Y60K
VL: B1 VL with K30S
notes: also called IPN92H0162/IPN93L0024
B16: C1_IPN92H0253-SG4GK/IPN93L0024-SK1 (antibody, human IgG4 S228P, kappa, name in Kabat numbering, V domains shown)
VH: B1 VH with D106K
VL: B1 VL with K30S
notes: also called IPN92H0253/IPN93L0024
B17: C1_IPN92H0261-SG4GK/IPN93L0091-SK1 (antibody, human IgG4 S228P, kappa, name in Kabat numbering, V domains shown)
VH: B1 VH with Y60E, G102K
VL: B1 VL with K30S, Y33R
notes: also called IPN92H0261/IPN93L0091
B18: C1_IPN92H0156-SG4GK/IPN93L0024-SK1 (antibody, human IgG4 S228P, kappa, name in Kabat numbering, V domains shown)
VH: B1 VH with Y59K
VL: B1 VL with K30S
notes: also called IPN92H0156/IPN93L0024
B19: C1_IPN92H0188-SG4GK/IPN93L0024-SK1 (antibody, human IgG4 S228P, kappa, name in Kabat numbering, V domains shown)
VH: B1 VH with K65D
VL: B1 VL with K30S
notes: also called IPN92H0188/IPN93L0024
B20: C1_IPN92H0147-SG4GK/IPN93L0024-SK1 (antibody, human IgG4 S228P, kappa, name in Kabat numbering, V domains shown)
VH: B1 VH with T58D
VL: B1 VL with K30S
notes: also called IPN92H0147/IPN93L0024
B21: C1_IPN92H0194-SG4GK/IPN93L0024-SK1 (antibody, human IgG4 S228P, kappa, name in Kabat numbering, V domains shown)
VH: B1 VH with G66E
VL: B1 VL with K30S
notes: also called IPN92H0194/IPN93L0024
B22: C1_IPN92H0279-SG4GK/IPN93L0091-SK1 (antibody, human IgG4 S228P, kappa, name in Kabat numbering, V domains shown)
VH: B1 VH with Y60E, G66E, G102K
VL: B1 VL with K30S, Y33R
notes: also called IPN92H0279/IPN93L0091
B23: C1_IPN92H0165-SG4GK/IPN93L0024-SK1 (antibody, human IgG4 S228P, kappa, name in Kabat numbering, V domains shown)
VH: B1 VH with L61D
VL: B1 VL with K30S
notes: also called IPN92H0165/IPN93L0024
B24: C1_IPN92H0160-SG4GK/IPN93L0024-SK1 (antibody, human IgG4 S228P, kappa, name in Kabat numbering, V domains shown)
VH: B1 VH with Y60E
VL: B1 VL with K30S
notes: also called IPN92H0160/IPN93L0024

This note sets out measurements from US20210032365A1 (Chugai, published 2021).

Positions count from the first letter of the chain named.

This assay has as its target T1, human C1s. Description: SPR, Ab captured; pH 7.4, 1.2 mM Ca. On the procedure:
Each antibody was captured onto the sensor surface by protein A/G. Antibody capture levels were aimed at 200 resonance unit (RU). Serum-derived human C1s (CompTech) or recombinant C1s prepared in EXAMPLE 1 was injected at 50 nM, followed by dissociation. The sensor surface was regenerated in each cycle with 10 mM Glycine-HCl, pH 1.5. […] The ratio of KD 5.8+ to KD 7.4+(“KD 5+/7+”) and that of KD 5.8− to KD 7.4+(“KD 5−/7+”) were calculated. When the KD 5+/7+ or KD 5−/7+ of a variant is larger than that of the parent antibody IPN009VH2-SG4GK/IPN009VK3-SK1, that variant is considered to be “pH”- or “pH and Ca”-dependent, respectively. When binding response in 5(+) buffer and/or in 5(−) buffer of a variant is much lower than that of IPN09VH2/IPN009VK3, that variant is also considered as “pH”- and/or “pH and Ca”-dependent. Therefore, such mutations are effective to generate “pH”- and/or “pH and Ca”-dependent antibody. To further enhance “pH” and/or “pH and Ca” dependency, a combination of histidine mutations was conducted. Antibodies with combinations of histidine mutations were evaluated using Biacore by the method described above.
C1_1IPN92H0033 (SEQ ID NO: 17)-SG4GK/IPN93L0024 (SEQ ID NO: 18)-SK1 (IPN92H0033/IPN93L0024) was selected for further optimization. Histidine, Lysine, Arginine, aspartic acid, glutamic acid, and glutamine scanning was conducted for CDRs and certain positions of FRs of IPN92H0033/IPN93L0024. Variants with a mutation were generated and purified, and evaluated using Biacore by the method mentioned above. All variants were evaluated using Biacore as mentioned above. Mutations that improved “pH” and/or “pH and Ca” dependency were selected for the combination.
A general note: SPR reads the build-up and loss of mass on a sensor chip optically.
On to B1, for which the Kd is 1.37 nM, the koff came out at 0.000567 s⁻¹ and the on-rate constant (kon) is 413000 M⁻¹ s⁻¹.
In the case of B2, the Kd was 2.06 nM, the koff is 0.000621 s⁻¹ and the association rate constant (kon) amounted to 302000 M⁻¹ s⁻¹.
For B3, in that order: 2.69 nM, 0.000746 s⁻¹ and 277000 M⁻¹ s⁻¹.
For B4, the Kd stood at 6.85 nM, the koff was determined as 0.00161 s⁻¹ and the kon amounted to 236000 M⁻¹ s⁻¹.
On to B5, for which the Kd came to 3.41 nM, the off-rate (koff) came out at 0.000863 s⁻¹ and the on-rate constant (kon) amounted to 253000 M⁻¹ s⁻¹.
As to B6, the dissociation constant (Kd) came to 2.03 nM, the off-rate constant (koff) was determined as 0.000689 s⁻¹ and the association rate constant (kon) was 340000 M⁻¹ s⁻¹.
For B7, in that order: 4.71 nM, 0.00157 s⁻¹ and 333000 M⁻¹ s⁻¹.
For B8 the same measures were 3.36 nM, 0.00125 s⁻¹ and 373000 M⁻¹ s⁻¹.
Regarding B9, the equilibrium dissociation constant (Kd) was 1.3 nM, the koff is 0.000577 s⁻¹ and the kon was 444000 M⁻¹ s⁻¹.
On to B10, for which the Kd was 1.4 nM, the off-rate (koff) stood at 0.000676 s⁻¹ and the on-rate constant (kon) turned out to be 482000 M⁻¹ s⁻¹.
For B11 the same measures were 1.5 nM, 0.000609 s⁻¹ and 406000 M⁻¹ s⁻¹.
As to B12, the equilibrium dissociation constant (Kd) was found to be 1.76 nM, the off-rate constant (koff) is 0.000518 s⁻¹ and the association rate constant (kon) turned out to be 294000 M⁻¹ s⁻¹.
Turning to B13, the Kd worked out at 3.68 nM, the koff turned out to be 0.00126 s⁻¹ and the on-rate (kon) worked out at 343000 M⁻¹ s⁻¹.
As to B14, the Kd is 0.925 nM, the koff came out at 0.000474 s⁻¹ and the kon was found to be 513000 M⁻¹ s⁻¹.
For B15, in that order: 1.8 nM, 0.000545 s⁻¹ and 303000 M⁻¹ s⁻¹.
For B16 the same measures were 0.121 nM, 6.9e-05 s⁻¹ and 569000 M⁻¹ s⁻¹.
For B17, in that order: 0.985 nM, 0.000774 s⁻¹ and 786000 M⁻¹ s⁻¹.
Consider B18, for which the Kd was determined as 2.12 nM, the koff is 0.000771 s⁻¹ and the kon is 364000 M⁻¹ s⁻¹.
Regarding B19, the Kd was determined as 2.03 nM, the koff stood at 0.000551 s⁻¹ and the kon was 271000 M⁻¹ s⁻¹.
For B20 the same measures were 2.05 nM, 0.000765 s⁻¹ and 374000 M⁻¹ s⁻¹.
B21: the Kd is 0.885 nM, the koff came to 0.000468 s⁻¹ and the kon is 529000 M⁻¹ s⁻¹.
For the molecule B22, the Kd is 0.686 nM, the off-rate (koff) was determined as 0.000897 s⁻¹ and the kon was 1.31e+06 M⁻¹ s⁻¹.
For B23 the same measures were 1.77 nM, 0.000512 s⁻¹ and 289000 M⁻¹ s⁻¹.
Take B24: the Kd worked out at 1.52 nM, the koff was found to be 0.000558 s⁻¹ and the kon was 368000 M⁻¹ s⁻¹.

As usually defined, the Kd is the equilibrium constant for the complex coming apart. By koff is commonly meant a measure of how fast the partners let go of each other. Usually kon stands for the second-order rate constant of association.
